The record followed here is patent US20250388703A1.

The target of assay [1] is Human CD3 E/D dimer (heterodimeric construct of human CD3 epsilon and CD3 delta domains, ACROBiosystems CDD-H52Wa) (human) (UniProt P07766). Briefly: BLI, CD3E/D-His on anti-His probes, 1:1 fit. For orientation: Biolayer interferometry detects binding as a change in optical thickness at a sensor tip.
The target is the same in assay [2]. Briefly: column 'CD3 affinity (nM)'; assay not named on the sheet; BLI on human CD3 epsilon/delta-His per Example 1.
A further assay concerns the target DLL3 (human) (UniProt Q9NYJ7). Description: not named on the sheet; Example 1 describes flow cytometry on CHO-K1 cells over-expressing DLL3. Background: Flow cytometry measures light scatter and fluorescence of single cells or particles in a stream.
The target in assay [3] is Human CD28-his (ACROBiosystems CD8-H52H3) (human) (UniProt P10747). Briefly: column 'CD28 affinity (nM)'; assay not named on the sheet; BLI on human CD28-His per Example 1.

Sequence of Human CD3 E/D dimer (heterodimeric construct of human CD3 epsilon and CD3 delta domains, ACROBiosystems CDD-H52Wa) (human) (P07766 23-126 limits assumed, stated change not applied, chain 1 of 2): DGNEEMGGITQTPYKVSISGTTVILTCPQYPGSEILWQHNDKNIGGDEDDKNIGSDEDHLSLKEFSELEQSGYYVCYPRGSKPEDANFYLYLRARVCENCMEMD
Sequence of Human CD3 E/D dimer (heterodimeric construct of human CD3 epsilon and CD3 delta domains, ACROBiosystems CDD-H52Wa) (human) (P04234 22-105 limits assumed, stated change not applied, chain 2 of 2, further chain): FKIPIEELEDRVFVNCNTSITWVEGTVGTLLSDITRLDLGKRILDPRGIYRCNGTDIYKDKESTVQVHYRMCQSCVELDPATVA
Sequence of DLL3 (human) (Q9NYJ7 27-492 limits assumed): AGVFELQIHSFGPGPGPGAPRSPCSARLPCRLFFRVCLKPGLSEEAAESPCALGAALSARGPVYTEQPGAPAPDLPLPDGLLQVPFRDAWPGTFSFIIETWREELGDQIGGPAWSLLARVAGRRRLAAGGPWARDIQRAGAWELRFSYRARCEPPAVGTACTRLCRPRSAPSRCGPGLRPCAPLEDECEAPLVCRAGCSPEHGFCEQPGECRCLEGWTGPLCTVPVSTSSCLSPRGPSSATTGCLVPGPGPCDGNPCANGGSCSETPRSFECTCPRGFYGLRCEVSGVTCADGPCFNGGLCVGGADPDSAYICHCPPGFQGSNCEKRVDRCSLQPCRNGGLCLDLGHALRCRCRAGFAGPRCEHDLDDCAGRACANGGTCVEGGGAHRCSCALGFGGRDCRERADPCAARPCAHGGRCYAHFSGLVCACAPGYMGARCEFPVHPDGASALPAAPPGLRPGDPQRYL

Usually Kd stands for the constant that tells how readily two partners part at equilibrium. Read a low Kd as higher affinity. In assay [1], “AMG757 (Tarlatamab, BM) (bispecific antibody)” returned a Fold reduction in CD3 affinity compared to Tarlatamab of 1 fold. Further, the dissociation constant Kd in assay [1] amounted to 2 nM; in assay [2], 3 nM. This substance also came in with a DLL3 affinity in the assay with DLL3 (human) of 0.2 nM.
Turning to 328_BM (SAR443216), the Kd was 22.9 nM in assay [2] and 4.32 nM in assay [3].
